Laboratory results taken from article PMC3700353.

Substrate: N[C@@H](CC(=O)c1ccccc1NC=O)C(=O)O
Experiment: purified protein
Format: biochemical, Drosophila melanogaster
Conditions: 50 mM potassium phosphate pH 7.4, 22 °C, 0.02–1.00 mM NFK

B1: KFase (kynurenine formamidase) (Drosophila melanogaster) (protein)
chain: MYNPRCKDLDRDYFPSYHTTRFQDQPEPNLAVLEHFVRVTKQHGRELTEKQGITVDHLRYGEGRQLVDVFYSEKTTNQAPLFVFVHGGYWQEMDMSMSCSIVGPLVRRGYRVAVMDYNLCPQVTLEQLMTQFTHFLNWIFDYTEMTKVSSLTFAGHSAGAHLLAQILMRPNVITAQRSKMVWALIFLCGVYDLRELSNLESVNPKNILGLNERNIESVSPMLWEYTDVTVWNSTKIYVVAAEHDSTTFIEQSRHYADVLRKKGYKASFTLFKGYDHFDIIEETAIDDSDVSRFLRNIEIE
  Km: 320 ± 60 µM
  kcat: 26.4 ± 4.45 s⁻¹
